Data taken from the nanobody polyreactivity screen of Harvey et al. (2022).

Experiment: yeast display, Sf9 membrane polyspecificity reagent, FACS + sequencing; frameworks hold sequencing errors
In short: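 Sorting gates, low and high (top ~1%), were placed on anti-HA fluorescence to track expression and on streptavidin fluorescence to track reagent binding. A clone's polyreactivity label is taken from the gate it came out of. The reagent was 10% biotinylated, detergent-solubilized Sf9 membrane, applied for 1 hour at 4 °C to galactose-induced yeast display cells.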

## QVQLVESGGGLVQAGGSLRLSCAASGSTFAYYAMGWYRQAPGKERELVAAITWSGGSTSYADSVKGRFTISRDNAKNTVYLQMNSLKPEDTGVYYCNADDKPLDWREYNYWGQGTQVTVSS
  polyreactivity (PSR sort gate): low polyreactivity

## QVQLVESGGGLVQAGGSLRLSCAASGSTFAYYAMGWYSPAPGKERELVAAISSSGGRTYYADSVKGRFTISRDNAKNTVYLQMYSLKPEDTAVYYCAARSPYYSASVRYDYWGQGTQVTVSS
  polyreactivity (PSR sort gate): high polyreactivity

## QVQLVESGGGLVQAGGSLRLSCAASGSTFAYYTMGWYRQAPGKERELVAAITWSGGRTFYADSVKGRFTISRDNAKNTVYLQMNSLKPEDTAVYYCNTDDSHRPPRTPDDYNYWGQGTQVTVSS
  polyreactivity (PSR sort gate): high polyreactivity

## QVQLVESGGGLVQAGGSLRLSCAASGSTFAYYVMGWYRQAPGTERELVAAITSSGGRTYYADSVKGRFTISRDNAKNTVYLQMNSLKPEDTAVYYCAKVSQRGVDNSDYDYWGQGTQVTVSS
  polyreactivity (PSR sort gate): high polyreactivity

## QVQLVESGGGLVQAGGSLRLSCAASGSTFCFNAMGWSRQAPGKEREMVAAIPSRGGSTYYADSVKGRFTSSRDNAKKTVYLQMKSLKPEDTAVYYCASDYFGFSYAGYNYWGQGTQVTVSS
  polyreactivity (PSR sort gate): low polyreactivity

## QVQLVESGGGLVQAGGSLRLSCAASGSTFDANTMGWYRQAPGKERELVAAISSNGGRTYYADSVKGRFTISRDNAKNTVYLLMNSLKPEDTAVYYCAASSYYRYRETYDYWGLGTQVTVSS
  polyreactivity (PSR sort gate): high polyreactivity

## QVQLVESGGGLVQAGGSLRLSCAASGSTFDAYAMGWYRQAPGKERELVAAITNAGSTNYADSVKGRFTISRDNAKNTVYLQMNSLKPEDTAVFYCAADVSRWLDYGYDYWGQGTQVTVSS
  polyreactivity (PSR sort gate): low polyreactivity

## QVQLVESGGGLVQAGGSLRLSCAASGSTFDDNALGWYRQAPGKERELVAAISSRGSTYYADSVKGLFTISRDNAKNTVYLQMNSLKPEDTAVYYCAKRTYRYYGLNAYYYWGQGTQVTVSS
  polyreactivity (PSR sort gate): high polyreactivity

## QVQLVESGGGLVQAGGSLRLSCAASGSTFDDNAMGWYRQAPGKERELVASINYSTGSTYYADSVKGRFTISRDNAKNTVYLQMNSLKPEDTAVYYCAKDLRRYLSWWYRYPYDYWGQGTQVTVSS
  polyreactivity (PSR sort gate): low polyreactivity

## QVQLVESGGGLVQAGGSLRLSCAASGSTFDDNAMGWYRQAPGKERELVASITYRGGSTYYADSVKGRFTISRDNAKNTVYLQMNSLKPEDTAVYYCAKGHYFKYDYWGQGTQVTVSS
  polyreactivity (PSR sort gate): low polyreactivity

## QVQLVESGGGLVQAGGSLRLSCAASGSTFDDYAMGWYRQAPGKERELVAAISYSGGSTYYADSVKGRFTISRDNAKNTVYLQMNSLKPEDTAVYYCAADDLYTDYETWWRRGDYCGQGTQVTVSS
  polyreactivity (PSR sort gate): low polyreactivity

## QVQLVESGGGLVQAGGSLRLSCAASGSTFDFNAMGWYRQAPGKERELVAAITGSDGNTYYADSVKGRFTISRDNAKNNVYLQMNTLTPEDTAVYYFAADFSWWSKYVVLYDYWGQGTQVTVSS
  polyreactivity (PSR sort gate): low polyreactivity

## QVQLVESGGGLVQAGGSLRLSCAASGSTFDFYAMGWYRQAPGKERELVAAISKSGGSTYYADSVKGRFTISRDTAKNTVYLQMNSLKPEDTAVYYCAAYVSYRMYWGQGTQVTVST
  polyreactivity (PSR sort gate): high polyreactivity

## QVQLVESGGGLVQAGGSLRLSCAASGSTFDGNAMGWNRQAPGKERELVAAITRAGRTSYADSVKGRFTISRDNAKNTVYLQMNCLKPEDTAVFYCAKGGYDYWGQGTQVTVSS
  polyreactivity (PSR sort gate): low polyreactivity

## QVQLVESGGGLVQAGGSLRLSCAASGSTFDGNAMGWYRQAPGKERELDAAISDGDSTTYADSVKGRFTISRDNAKNTVYLQMNSLKPEDTAVYYCNADVARSKSQASAYDYWGQVTQVTVSS
  polyreactivity (PSR sort gate): low polyreactivity

## QVQLVESGGGLVQAGGSLRLSCAASGSTFDGYAMGWYRQAPGKERELVAAITSSDGSTYYADSVKGRFTISRDNAKNTVYLQMNSLKPEDTAVSDCNAEGYDWEFGYWGQGTQVTVSS
  polyreactivity (PSR sort gate): low polyreactivity

## QVQLVESGGGLVQAGGSLRLSCAASGSTFDINAMGWYRQAPGKERELFASITFSGGSTYYADSVKGRITISRDYEKNNVYLQMNSLKPEDTAVYYCAADSSGEYPGGYWGQGTQVTVSS
  polyreactivity (PSR sort gate): low polyreactivity

## QVQLVESGGGLVQAGGSLRLSCAASGSTFDINAMGWYRQAPGKERELVASITFCGGSTYYADSVKGRFTISRDNAKNTVYLEMNSLKPEDTAVYYCAADSSGEYPGGYWGQGTQVTVSS
  polyreactivity (PSR sort gate): low polyreactivity

## QVQLVESGGGLVQAGGSLRLSCAASGSTFDIYAMGWYRQAPGKERELVAAITFSGGSTYYADSVKGRFTISRDNAKNTVYLQMNSLKPEDTAVDYCAARNDYYKTFSGYDYWGQGTQVTVSS
  polyreactivity (PSR sort gate): low polyreactivity

## QVQLVESGGGLVQAGGSLRLSCAASGSTFDKYAMGWYRQAPGKERELVAVISGSGGRTYYADSVKGRFTISRDNAKNTVYLQMNSLKPEDTAVYYCAARGSFKKGYWGQGTQVTVSS
  polyreactivity (PSR sort gate): high polyreactivity

## QVQLVESGGGLVQAGGSLRLSCAASGSTFDNYALGWYRQAPGKERELVAAINWSGSSTYYADSVKGRFTISRDNAKNTVYLQMNSLKPEDTAVYYCNKTGVTPKTATDGDYWGQGTQVTVSS
  polyreactivity (PSR sort gate): low polyreactivity

## QVQLVESGGGLVQAGGSLRLSCAASGSTFDPNAMGWYRQAPGKERELVAAITGRGGSTYYADSVKGRFTISRDTAKNTVYLQMNSLKPEDTAVYYCAAEYLGSIDTSYNYWGQGTQVTVSS
  polyreactivity (PSR sort gate): low polyreactivity

## QVQLVESGGGLVQAGGSLRLSCAASGSTFDPNAMGWYRQAPRKEREFVAAIRVSGDNTYYADSVKGRFTISRDNAKNTVYLLMNSLKPEDTAVYYCAATGTVLGSVDYWGQGTQVTVSS
  polyreactivity (PSR sort gate): low polyreactivity

## QVQLVESGGGLVQAGGSLRLSCAASGSTFDPNTMGWYRQAPGKERELVAAITSSTASTYYADSVKGRFTISRDNAKNTVYLQMNSLKPEDTAVYYCAADSEQDNLRYYRWVWYYYWGQGTQVTVSS
  polyreactivity (PSR sort gate): low polyreactivity

## QVQLVESGGGLVQAGGSLRLSCAASGSTFDPYAMGWYRQAPGKDRELVAAISSDGSTYYADSVKGRFTISRDNAKNTVYLQMNSLKPEYTAVYYCAADPFYWYRSVRGEYWGQGTQVTVSS
  polyreactivity (PSR sort gate): low polyreactivity

## QVQLVESGGGLVQAGGSLRLSCAASGSTFDQYAMGWYRQAPGKDRELVAAISGSGGRTSYADSVKGRFTISRDNAKNTVYLQMNSLKPEDTAVYYCNKASYRISVPRYDYWGQGTQVTVTS
  polyreactivity (PSR sort gate): high polyreactivity

## QVQLVESGGGLVQAGGSLRLSCAASGSTFDRYAMGWYRQAPGKEREFVAAITWGGGSTYYADSVKGRFTISRDNAKNTVYLQMNSLKPEDTAVYYCATRYGATFGYWGQGTQVTVSS
  polyreactivity (PSR sort gate): low polyreactivity

## QVQLVESGGGLVQAGGSLRLSCAASGSTFDSYAMGWYRQAPGKEREFVAAISSCAGSSGRTSYADSVKGRFTISRDNATNTVYLQMNSLKPEDTAVYYCAKEYTLAKYREYDYWGQGTQVTVSS
  polyreactivity (PSR sort gate): low polyreactivity

## QVQLVESGGGLVQAGGSLRLSCAASGSTFDSYAMGWYRQAPGKERELVAAISTSGGSTYYADSVKGRFTISRDNAKNTVYLQMNSLKPEDTAVYYCAAYSISSRMNYWGQGSQVTVSS
  polyreactivity (PSR sort gate): high polyreactivity

## QVQLVESGGGLVQAGGSLRLSCAASGSTFDSYAMGWYRQAPGKERELVAAITTTGGSTFYADSVKGRFTISRDNAKNTVYLQMNSLKPEDTAVYYCAADDGWQEFEYWGQGTQVTVSS
  polyreactivity (PSR sort gate): low polyreactivity

## QVQLVESGGGLVQAGGSLRLSCAASGSTFDSYAMGWYRQAPGKERELVAAITTTGGSTFYADSVKGRFTISRDNAKNTVYLQMNSLKPEDTAVYYCADDDGWQEFEYWGQGTQVTVSS
  polyreactivity (PSR sort gate): low polyreactivity

## QVQLVESGGGLVQAGGSLRLSCAASGSTFDTNAMGWSRPAPGKEREWVAAITWRGGRTSYADSVKGRFTISRDNAKNTVYLQMNSLKPEDTAVYYCAAGYKFGPPAAGTFSDFDYWGQGTQVTVTS
  polyreactivity (PSR sort gate): low polyreactivity

## QVQLVESGGGLVQAGGSLRLSCAASGSTFDTNAMGWYRQAPGKERELVAAISASGGSTYYADSVKGRFTISRDNAKNTVYLQMNSLKPEDTAVYYCAATSGRAFKYDYWGQGTQVTVSS
  polyreactivity (PSR sort gate): high polyreactivity

## QVQLVESGGGLVQAGGSLRLSCAASGSTFDTNAMGWYRQAPGKERELVATITSIGGSKYADSVKGRFTISRDNAKNTVYLQMNSLIPEDTAVYYCATDYVEIDYDYDYWGQGTQVSVSS
  polyreactivity (PSR sort gate): low polyreactivity

## QVQLVESGGGLVQAGGSLRLSCAASGSTFDTNAMGWYRQAPGKERELVATITSIGGSTYADSVKGRFTISRDNAKNTVYLQMNSLKPEDTAVYYCATDYVEIDYDYDYWGQGTQVTLSS
  polyreactivity (PSR sort gate): low polyreactivity

## QVQLVESGGGLVQAGGSLRLSCAASGSTFDTNVMGWYRQAPGKERDLVAAIDVSGGSTYYADSVKGRFTISRDNAKNTVYLQMNSLKPVDTAVYYCAAVDGKYGMDYWGQGTQVTVST
  polyreactivity (PSR sort gate): low polyreactivity

## QVQLVESGGGLVQAGGSLRLSCAASGSTFDVYAKGWYRQAPGKEWELVAAISRSGGSTYYADSVKGRFTISRDNAKNTVYLQMNSLKPEDTAVYYCNPRLARWGSDEYNYWGQGTQETVSS
  polyreactivity (PSR sort gate): low polyreactivity

## QVQLVESGGGLVQAGGSLRLSCAASGSTFDVYAMGWYRQAPGKERELVAAIDVRDSTTYYADSVKGRFTISRDNAKNTVYLQMNSLKPEDTAVYYCAAEADIEYGDDDYWGQGTQVTVSS
  polyreactivity (PSR sort gate): high polyreactivity

## QVQLVESGGGLVQAGGSLRLSCAASGSTFDVYAMGWYRQAPGKERELVAAISYIGDNTYYADSVKGRFTISRDNAKNTVYLQMNSLKPEDTAVYYCAAEAEHYSFQDYYVEYDYWGQGTQVTVSS
  polyreactivity (PSR sort gate): high polyreactivity

## QVQLVESGGGLVQAGGSLRLSCAASGSTFDYNAMGWYRQAPGKERELVAAITTIGGSTYYADSVKGRFTISRDNAKNTVYLQMNSLKPEDTAVYYCAADLRVWGRSGYDYWGQGTQVTVSS
  polyreactivity (PSR sort gate): low polyreactivity

## QVQLVESGGGLVQAGGSLRLSCAASGSTFDYNAMGWYRQAPGKERELVADITGSGASTSYADSVKGRFTISRDNAKNTVYLQMNSLKPEDTAVYYCAATGYSSWTYYTHEYWGQGTQVTVSS
  polyreactivity (PSR sort gate): low polyreactivity

## QVQLVESGGGLVQAGGSLRLSCAASGSTFDYNAMGWYRQAPGKERELVATISSSVGSTYYADSVKGRFTISRDNAKNTVNLQMNSLKPEDTAVYYCNSDYVAYGPEYDYWGQGTQVTVSS
  polyreactivity (PSR sort gate): low polyreactivity

## QVQLVESGGGLVQAGGSLRLSCAASGSTFDYNTMGWYIQAPGKERELVAAISESGGSTYYADSVKGRFTISRDNAKNTVYLQMNSLKPEDTAVYYCATDDFGGYFGEYDYWGQGTQVTVSS
  polyreactivity (PSR sort gate): low polyreactivity
